# Measured values published in doi:10.1101/383430 (bioRxiv, 2018).
# Molecular target: T1, FAP45 (flagellar-associated protein 45) (Chlamydomonas (endogenous in axonemes), UniProt A8I9E8 1-501)
# T1 sequence (looked up): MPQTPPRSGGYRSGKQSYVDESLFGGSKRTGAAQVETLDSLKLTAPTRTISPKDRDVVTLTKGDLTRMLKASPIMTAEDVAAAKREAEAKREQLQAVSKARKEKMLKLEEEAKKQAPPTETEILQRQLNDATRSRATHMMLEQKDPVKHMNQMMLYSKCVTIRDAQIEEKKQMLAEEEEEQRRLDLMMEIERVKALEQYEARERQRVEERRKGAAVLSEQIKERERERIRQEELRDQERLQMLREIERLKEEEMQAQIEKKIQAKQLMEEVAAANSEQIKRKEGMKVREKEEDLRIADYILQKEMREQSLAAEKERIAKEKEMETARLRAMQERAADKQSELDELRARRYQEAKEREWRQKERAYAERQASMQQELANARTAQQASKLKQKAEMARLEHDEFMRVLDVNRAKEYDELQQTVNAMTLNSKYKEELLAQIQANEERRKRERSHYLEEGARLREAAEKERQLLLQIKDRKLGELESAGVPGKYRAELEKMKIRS
# Assay: cross-linking
binder,measurement,value
"FAP52 (flagellar-associated protein 52) (natural protein, Chlamydomonas (endogenous in axonemes), UniProt A8ILK1 1-615, looked up) MAEPLVLNSVIGFGGAIENGLIAHPDGRTIIYPLGSTIVLRDRADPRSQEFLQGHSDKVSCLALSRSGRYLASGQITYMGFTADIIIWDLESKQLIHRMALHKVKVQALDFSCDERFLASLGGQDDNALVLWDVASGNAICGSPCNTNFTNCVKFFNNSPDKLITAGNFNMNVWTYDAGNNKLRPTDATLGTLKRVFKSVVVDANDEYAYCGTTTGDVLQIALERVLFKNTGPAKGNVQMGVTATCEVPTGDILVGGGDGSLQLLRKMPALAGTKVEGAITSIALADMNARGFTFFVGTAMCNIYKPATSRLKEELVQTAHNDKINGMAFPNEYSEVFATCGTGFIRLWHLTTCRELLRIAVPNLECFCIAFTTDGSAILSGWSDGKIRAFGPQSGKIIFTINDAHQKAVTAIASTADSSRILSGGEEGMVRVWRIGRTSQTLEASMKDHKGPVNCIRIKGSGDECVSASSDGSCILWDLHTFKRRTSLFANTFFKSVVYHPDESQLVTAGTDRKVTYWDAYDGNAIRIIDGSDLDEVNALAVDRDGEALVSGGGDKLVKLWGYDEGHCYFVGVAHSGAITAVGVTPDKQRIVSVGTEGGIFIWDYQRPQTLADI",stoichiometry N,~1
